Data taken from the DeepSol protein solubility set.

Assay: soluble on expression in E. coli; label from the status in PepcDB or PDB records

Sequence	soluble on expression in E. coli
MNRRDFIKAASGGALLLGAAPSVSHAAAENRPPIPGSLGMLYDSTLCVGCQACVTKCQDINFPARNPEGEQTWSNNDKLSPYTNNIIQVWRSGTGVNKDQEENGYAYIKKQCMHCVDPNCVSVCPVSALKKDPKTGIVHYDKDVCTGCRYCMVACPYNVPKYDYNNPFGALHKCELCNQKGVERLDKGGLPGCVEVCPAGAVIFGTREELMAEAKKRLALKPGSEYHYPRQTLKTDDTYLHTVPKYYPHLYGEKEGGGTQVLVLTGVPYEDLDLPKLDDLSTGARSEHVQHTLYKGMILPLAALAGLTVLVRRNSKNDHHDGGDDHES	not soluble
MGSDKIHHHHHHMASFQSFGIPGQLEVIKKALDHVRVGVVITDPALEDNPIVYVNQGFVQMTGYETEEILGKNCRFLQGKHTDPAEVDNIRTALQNKEPVTVQIQNYKKDGTMFWNELNIDPMEIEDKTYFVGIQNDITKQKEYEKLLEDSLTEITALSTPIVPIRNGISALPLVGNLTEERFNSIVCTLTNILSTSKDDYLIIDLSGLAQVNEQTADQIFKLSHLLKLTGTELIITGIKPELAMKMNKLDANFSSLKTYSNVKDAVKVLPIM	not soluble
MSLKYSFIAQHKKTWPVGMMCQLMGVTSSGYYSYQKRKSTKTNNEPEHEELLEWVKKISESSKFSYGNRRIRKALNALGYPVGRRKTHRLMREAGIFVRYKKKYKVTTNSNHKQPIFDNVLNRKFQVNEPNRAYVSDMTYIPTHEGWLYLTVVIDLFSRKVVGWNMSSRMKADTVCDALTMAIWQRKPKAGLIVHSDRGSQYASKQYRSLLNQHGLVGSMSKKGDCWDNSVAESFFSRLKDELVHWRNYQTRREAKQDILDYMTMFYNNQRLHSSLDYLSPNQFENRYWGLMKKVAEGHHHHHH	not soluble
MGSDKIHHHHHHMNIVSQLSPVTLSPELIARFTAIVGDKHALTDPLELEAYITEERNLYRGHSPLVLRPGSTEEVVAICKLANEARVALVPQGGNTGLVGGQTPHNGEVVISLKRMDKIREIDTSSNTITVEAGAILQRVQEKAAEVDRLFPLSLGAQGSCTIGGNLSTNAGGTAALAYGLARDMALGVEVVLADGRVMNLLSKLKKDNTGYDLRDLFIGAEGTLGIITAATLKLFPKPRAVETAFVGLQSPDDALKLLGIAQGEAAGNLTSFELIAETPLDFSVRHANNRDPLEARYPWYVLIELSSPRDDARAALESILERGFEDGIVVDAAIANSVQQQQAFWKLREEISPAQKPEGGSIKHDISVPVAAVPQFIEQANAAVVALIPGARPVPFGHLGDGNIHYNVSQPVGADKAEFLARWHDVSQVVFEVVLRLGGSISAEHGIGVMKRDELAEVKDKTAIELMRSIKALLDPHGIMNPGKVV	not soluble
AMAEAYQIQSNGDPQSKPLLELYVKASGIDARRIGADLFCQEFWMELYALYEIGVARVEVKTVNVNSEAFKKNFLGAQPPIMIEEEKELTYTDNREIEGRIFHLAKEFNVPLFEKDPSAEKRIENLYRNFKLFLRAKVEFDKGKKEPSRVEDLPAQIKVHYNRVCEQLSNIDQLLSERKSRYLLGNSMTEYDCELMPRLHHIRIIGLSLLGFDIPHNFTHLWAYILTAYRTAAFIESCPADQDIIHHYKEQMNLFTNQRETLQSPTKTHTIPEKVLSDIRVKGLAPDVNVH	soluble
GSFTFSPGQDIQLIPPLINLLMSIEPDVIYAGHDNTKPDTSSSLLTSLNQLGERQLLSVVKWSKSLPGFRNLHIDDQITLIQYSWMSLMVFGLGWRSYKHVSGQMLYFAPDLILNEQRMKESSFYSLCLTMWQIPQEFVKLQVSQEEFLCMKVLLLLNTIPLEGLRSQTQFEEMRSSYIRELIKAIGLRQKGVVSSSQRFYQLTKLLDNLHDLVKQLHLYCLNTFIQSRALSVEFPEMMSEVIAAQLPKILAGMVKPLLFHKK	soluble
MHHHHHHGRIGIPRERLTNETRVAATPKTVEQLLKLGFTVAVESGAGQLASFDDKAFVQAGAEIVEGNSVWQSEIILKVNAPLDDEIALLNPGTTLVSFIWPAQNPELMQKLAERNVTVMAMDSVPRISRAQSLDALSSMANIAGYRAIVEAAHEFGRFFTGQITAAGKVPPAKVMVIGAGVAGLAAIGAANSLGAIVRAFDTRPEVKEQVQSMGAEFLELDFKEEAGSGDGYAKVMSDAFIKAEMELFAAQAKEVDIIVTTALIPGKPAPKLITREMVDSMKAGSVIVDLAAQNGGNCEYTVPGEIFTTENGVKVIGYTDLPGRLPTQSSQLYGTNLVNLLKLLCKEKDGNITVDFDDVVIRGVTVIRAGEITWPAPPIQVSAQPQAAQKAAPEVKTEEK	soluble
MIPAEIAKTAFKSLLPVLERGVVAADRAFSGYIQPRRLRGKLLLQPYVGWGTPREVELTGRVLLPRALAPARKGDPRWRNFHNIVRRLFSREVGGVRVAGTLSDQTVSAVSDSDGYFTLHFTFPRPIAAGWHEVRLQMEDRQEDAARARVQVVGKARFGIISDLDDTVIQSDVTSLPRMLMTSLTGNARTRSPFPGVGALYRALTREGEARNPIFYVSSSPWNFFDLLWQFLDYRRIPLGPLFLRNWGMDLLGGHGGYKHGVIERIFHRYPNLNFVLVGDSGEKDPEIYAEVVRRFPGRVLAVYIRDVTGAERDEGVLRLREEIRKAGADLVLASDSLSAAGHALALGLITPGEYRSVLTSVARTYETLEHHHHHH	soluble
MGSDKIHHHHHHMSFFKTPLIGLKADSFRHPLDLEATKTLKQIPGIDMLVRNWLGPMAEQVFYVENIASSILVGEKQLPDLYKLLLDACEILDIEPPQLYVRQHPAPNAYTFAVRGKQPFVVLHTSLIDILTPEEIQAVIAHELGHLKCDHSVYLTPVNLLILAAAIVPNVGTFVAQAIQAQLLEWVRCAEFTCDRAALLATQDPKVVMSVLMKLAGGSPTLAPQLNLDAFVAQARAYDDISKTELGEMVKTARTAQLTHPVPVLRAREIDRWASSTEYQSLIQSHGLKSTSKEVAPKGGWRNW	not soluble
SKAQEKGEAISLAFKGVKAEFLKRPEADVHFVCNDGHVIDEMLDHTIATGERVNRDVKIIALCPSLHGQEPMAEFALTLSIKKAAQHTKKAA	not soluble
MGSDKIHHHHHHAPQPTVAVARGKDYARTTRSALALLGGMKRFVKPGDVVVLKPNMGWDRTPAQAANTHPLVVRALAEEALAAGAKRVKVFDRTCNDERRCYVQSGISDALKGMKGVELKFIENERFRRVPIKGAVLPAWELYDEALSADVFINVPVAKHHGLSRLTLGLKNVMGVMGGNRGSIHRHLDDALADINSVLKSHLTVIDATRILTDHGPQGGSPADVKVMDTVIASTDIVAADAYATTLFGLKPEDIPVTVAAHKRGLGEMNLKRVRIVTA	not soluble
MVSNAYQGIGSEYETLLKASGRENEVFKKRVGKDRVMATTVHGWWQETMWQRSSSLFTDGRICSCWRLSPTSSRGLQPTYQRKRDFTTGRYGKNACG	not soluble
MSLGRYCTDTEWTWFIPGKSPIKTDTIFREVAINGKTGLRTCHIDENTRFEVYEFWPSDLLRIFRRAGIQRHTPPFFEPGCALSGNSGISPQITSPQAGVSYIVHANTQSNKIIPLTAVTDAGIAHLYWFINESFVAETKSDEPYLWQAKPGKYVVRVVDDRGLSDARDITIQMVSEGHHHHHH	soluble
MSLNKLCMYLERPELYKQSEINFWDDEYISKQLLKAHLDTNFEGASRNFNFIEDSVNWIVTVANPANYPKLLDLGCGPGLYAEKFAQKGYKVTGIDFSKRSINYAQNRNKETNLNINYLFQSYLNMNYNEEFDLATLIYCDYGALSTENRRLLMEKIYDSLKPGGKLILDVFTINKYNNFEEIKYWEINEDGGFWSNEKYMCLQDNCKYNDYNTLEQTLVITEKDENVFYVWNHYFSKESFLLEVENIGFKSVEFFSNVKGEAYSDDSMTMGLVLQKEGHHHHHH	soluble
MKLLKTKNCLYYRNGDNKLSEYQLLTQFNPAFINKKIKMCEFQIESMYHMSASTTTCDEIMGVVSVSYPIEKLVIKIIETKAGLQNYKNRSINNMALLKKVLNHYTEKEQKQVVKYMRSNGRYKPYNVIERLQVDLYQASIKQRSERQKQRNTAIENSKIARVNAYHQSSYVKVV	not soluble
MTNSEPRRMTCDSEVVWKKLQDGLDVAYRRENMAPKDYMTLYTSVYDYCTSITLSTSRRDGEDGRAESSTPARTAGADFVGHEMYQRVEEYVKAYVIAVCEKGAELSGEDLLKYYTTEWENFRISSKVMDGIFAYLNRHWIRRELDEGHENIYMVYTLALVVWKRNLFNDLKDKVIDAMLELIRSERTGSMINSRYISGVVECLVELGVDDSETDAKKDAETKKLAVYKEFFEVKFLEATRGFYTQEAANFLSNGGNVTDYMIKVETRLNQEDDRCQLYLNSSTKTPLATCCESVLISNQLDFLQRHFGGLLVDKRDDDLSRMFKLCDRVPNGLDELRKSLENHIAKEGHQALERVAMEAATDAKLYVKTLLEVHERYQSLVNRSFKNEPGFMQSLDKAATSFINNNAVTKRAPPQAQLTKSAELLARYCDQLLRKSSKMPDEAELEELQTKIMVVFKYIDDKDVFSKFYTKMFSKRLISELSASDEAEANFITKLKSMCGYEYTARLSKMVNDTQVSKDLTADFKEKKADMLGQKSVEFNVLVLSSGSWPTFPTTPITLPQQLSKTIEIFGQFYNEKFNGRRLTWVYSQSRGEITSTAFPKKYVFTATTAQMCTMLLFNEQDSYTVEQIAAATKMDEKSAPAIVGSLIKNLVLKADTELQKEDEVPMTATVSLNKAYMNKKVRVDLSKFTMKQDAVRDTENVQKNVEEDRKSVISACIVRIMKTRKRVQHQQLMTEVITQLSGRFKPKVEMIKRCIGSLIEKEYMLRTEGQKDLYEYLA	not soluble
MPPITQQATVTAWLPQVDASQITGTISSLESFTNRFYTTTSGAQASDWIASEWQALSASLPNASVKQVSHSGYNQKSVVMTITGSEAPDEWIVIGGHLDSTIGSHTNEQSVAPGADDDASGIAAVTEVIRVLSENNFQPKRSIAFMAYAAEEVGLRGSQDLANQYKSEGKNVVSALQLDMTNYKGSAQDVVFITDYTDSNFTQYLTQLMDEYLPSLTYGFDTCGYACSDHASWHNAGYPAAMPFESKFNDYNPRIHTTQDTLANSDPTGSHAKKFTQLGLAYAIEMGSATGDTPTPGNQ	soluble
MWDKSLVFTFFRRRFGMALSTFKREHIKKNLRNDEYDLVIIGGGITGAGIALDASERGMKVALVEMQDFAQGTSSRSTKLVHGGLRYLKQFQIGVVAETGKERAIVYENGPHVTTPEWMLLPMHKGGTFGKFSTSIGLGMYDRLAGVKKSERKKMLSKKETLAKEPLVKKEGLKGGGYYVEYRTDDARLTIEVMKRAAEKGAEIINYTKSEHFTYDKNQQVNGVKVIDKLTNENYTIKAKKVVNAAGPWVDDVRSGDYARNNKKLRLTKGVHVVIDQSKFPLGQAVYFDTEKDGRMIFAIPREGKAYVGTTDTFYDNIKSSPLTTQEDRDYLIDAINYMFPSVNVTDEDIESTWAGIRPLIYEEGKDPSEISRKDEIWEGKSGLLTIAGGKLTGYRHMAQDIVDLVSKRLKKDYGLTFSPCNTKGLAISGGDVGGSKNFDAFVEQKVDVAKGFGIDEDVARRLASKYGSNVDELFNIAQTSQYHDSKLPLEIYVELVYSIQQEMVYKPNDFLVRRSGKMYFNIKDVLDYKDAVIDIMADMLDYSPAQIEAYTEEVEQAIKEAQHGNNQPAVKELEHHHHHH	soluble
MGSDKIHHHHHHMCSDHIRLPAQLAAGDVAIRVENLSKRFAVYHTRLERLKHIVAPRRTKGFAEFWALDHVDLTIGRGEACAIIGRNGSGKSTLLQILCGTLRATSGRVAVNGRVAALLELGAGFNADFTGRENVYLNGAVLGLSHTEINERFVEIEAFAEVGDFIDQPVKTYSSGMYVRLAFAIAIHVDPQILIVDEALAVGDARFQAKCLNRIKKMQADGVTLLFVSHDVSAVRTLCDRALWLDCGKVKMLADAFSVTAQYSQFLFEGEDYAVAGNGSGSPQDSSGALQSAASQDISPSAHPEEANQSRAGACGEELMAMHRPINHWGSHVGSIVQAGIYNARGERASTFVAGEPIEVRVIFRPPLNADRKTMSVAFSLKDLRGTDLIVSTTWDQRRLDFEQAGGEACIRFRLRNQLNRGSYLLAVALEDRAGVAPQYYEYIEGAHYFTSLVEDTLFGSFVVDVEQTIEPGHSLYANARVSV	not soluble
